Measurements taken from the nanobody polyreactivity screen of Harvey et al. (2022).

Test: yeast display, Sf9 membrane polyspecificity reagent, FACS + sequencing; frameworks hold sequencing errors
Method in brief: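 Galactose-induced (36–48 hours) yeast carrying a synthetic nanobody display library were exposed to 10% biotinylated, detergent-solubilized Sf9 membrane reagent at 4 °C for 1 hour. FACS followed streptavidin microbead enrichment, using low and high (top ~1%) gates for expression (anti-HA) and reagent binding (streptavidin). Colony PCR, MiSeq 2 × 250 sequencing and CDR-length filtering followed. Labels for polyreactivity reflect the gate of origin.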
With “QVQLVESGGGLVQAGGSLRLSCAASGRIFGNTAMGWYRQAPGKERELVAAIRSRGTRTYYADSVKGRFTISRDNAKNTVYLQMNSLKPEDTAVYYCATTSLTGRYDRYDYWGQGTQVTVSS” the “polyreactivity (PSR sort gate)” value was “high polyreactivity”.
In the case of “QVQLVESGGGLVQAGGSLRLSCAASGRIFGNYAMGWYRQAPGKERELVAAISGGGSTYYADSVKGRFTISRDKAKNTVYLQMNSLKPEDTAVYYCAARFLWSVFGRKGGYWGQGTQVTVSS”, the “polyreactivity (PSR sort gate)” value is reported as “low polyreactivity”.
For “QVQLVESGGGLVQAGGSLRLSCAASGRIFGNYAMGWYRQAPGKERELVASISRRGGSTYYADSVKGRFTISRDNAKNTVYLQMIRLKPEDTAVYYCATLRGRLRFGYDYWGQGTQVTVSS”, the “polyreactivity (PSR sort gate)” value was “high polyreactivity”.
With “QVQLVESGGGLVQAGGSLRLSCAASGRIFGNYYKVWFRQAPGKERDLVAAISGGGSTYYADSVKGRFTISRDNAKNTVYLQMNSLKPEDTGVYYCAARFLWSVFGRKGGYWGQGTQVTVSS” the “polyreactivity (PSR sort gate)” value was “low polyreactivity”.
With “QVQLVESGGGLVQAGGSLRLSCAASGRIFGPYAMGWSRQAPGKERELVATITWRTGSTYYADSVKGRFTISRDNAKNTVYLQMNSLKPEDTEVYYSAARYGRYSKAGDYWGQGTQVTVSS” the “polyreactivity (PSR sort gate)” value was “high polyreactivity”.
In the case of “QVQLVESGGGLVQAGGSLRLSCAASGRIFGPYAMGWYRQAPGKERELVAAISFSGSGTYYADSVKGRFTISRDNAKNTVYFQMNSLKPEDTAVYYCAATSRKIVAYDHDYWGQGTQVTVSS”, the “polyreactivity (PSR sort gate)” value is reported as “low polyreactivity”.
For “QVQLVESGGGLVQAGGSLRLSCAASGRIFGPYAMGWYRQAPGKERELVAAITRGGSTSYADSVKGRFTISRDNAKNTVDLQMISLKTEDTAVDYCAADTLRWWYGFDYWGQGTQVTVSS”, the “polyreactivity (PSR sort gate)” value was “low polyreactivity”.
In the case of “QVQLVESGGGLVQAGGSLRLSCAASGRIFGPYTMGWYRQAPGKERELVAAIRSSGTSTYYADSVKGRFTISRDNAKNTVYLQMNSLKPEDTAVYYCNRARSSSRYDYWGQGTQVTVSS”, the “polyreactivity (PSR sort gate)” value is reported as “low polyreactivity”.
In the case of “QVQLVESGGGLVQAGGSLRLSCAASGRIFGPYVMGWYRQAPGKERDFVAAISRRTGSTYYADSVKGRFTISRDNAKNTVYLQMNSLKPEDTAVYYCAATYYFSHVVGYGYWGQGTQVTVSS”, the “polyreactivity (PSR sort gate)” value is reported as “high polyreactivity”.
For “QVQLVESGGGLVQAGGSLRLSCAASGRIFGQNAMGWYRQAPGKERELVASITTSGSSTNYADSVKGRFTISRDNAKNTVYLQMNSLKPEDTAVYYCAADYVSPDPDELHDYSGYYYWGQGTQVTVSS”, the “polyreactivity (PSR sort gate)” value was “high polyreactivity”.
For “QVQLVESGGGLVQAGGSLRLSCAASGRIFGRNAMGWYRQAPGKERELVAAISSGGGRTYYADSVKGRFTISRDNAKNTVYLQMNSLKPEDTSVYYCAAEDWYEYDYWGQGTQVTVSS”, the “polyreactivity (PSR sort gate)” value was “high polyreactivity”.
In the case of “QVQLVESGGGLVQAGGSLRLSCAASGRIFGRNAMGWYRQAPGKERELVAAISSSGGRTYYADSVKGRFSISRDNAKNTVYLQMMSLKPEDTAVYYCAAVGSLYYYRYDYWGQGTQVTVSS”, the “polyreactivity (PSR sort gate)” value is reported as “high polyreactivity”.
For “QVQLVESGGGLVQAGGSLRLSCAASGRIFGRNAMGWYRQAPGKERELVAAISSSGRTYYADSVKGRFTISRDNAKNTVYLQMNSLKPEDTAVYYCAAYGYSWGQGTQVTVSS”, the “polyreactivity (PSR sort gate)” value was “high polyreactivity”.
In the case of “QVQLVESGGGLVQAGGSLRLSCAASGRIFGRNAMGWYRQAPGKERELVASITSGGGTNYADSVKGRFTISRDNAKNTVYLQMNCLKPEDTAVYYCAAKRHLEGYSGSIGRYYYWGQGTQVTVSS”, the “polyreactivity (PSR sort gate)” value is reported as “low polyreactivity”.
With “QVQLVESGGGLVQAGGSLRLSCAASGRIFGRNTMGWYRQAPGKERELVAAISYSAGSTYYADSVKGRFTISRDNAKNTVYLQMNSLKPEDTAVYYCAAGYIRTTYRTNRYGYWGQGTQVTVSS” the “polyreactivity (PSR sort gate)” value was “high polyreactivity”.
For “QVQLVESGGGLVQAGGSLRLSCAASGRIFGRYAMGGSRQAPGKERELVAAITSSGGNTYYADSVKGRFTISRDNAKNTVYLQMNSLKPEDTAVYYCNALSARSRLQSDYWGQGTQVTVSS”, the “polyreactivity (PSR sort gate)” value was “high polyreactivity”.
In the case of “QVQLVESGGGLVQAGGSLRLSCAASGRIFGRYAMGWYRPAPGKEREFVAAISKRGGGTYYADSVKGRFTISRDNAKNTVYLQMNSLKPEDTAVYYCAVDNSPGFDDYDYWGQGTQVTVSS”, the “polyreactivity (PSR sort gate)” value is reported as “high polyreactivity”.
With “QVQLVESGGGLVQAGGSLRLSCAASGRIFGRYAMGWYRQAPGKEREFVAAISKRGGGTYYADSVKGRFTISRDNAKNTVYLQMISLKPEDTAVYYCAVDNSPGFDDYDYWGQGTQVTVSS” the “polyreactivity (PSR sort gate)” value was “high polyreactivity”.
For “QVQLVESGGGLVQAGGSLRLSCAASGRIFGRYAMGWYRQAPGKERELVAAISSGGNTYYADSVKGRFTISRDNAKNTVYLQMISLKPEDTAVYYCNALYYRPPGYDYWGQGTQLTVSS”, the “polyreactivity (PSR sort gate)” value was “high polyreactivity”.
For “QVQLVESGGGLVQAGGSLRLSCAASGRIFGRYAMGWYRQAPGKERELVAVISARGARTYYADSVKGRFTISRDNAKNTVYLQRNSLKPEDTAVYYCAVDQYATDDYWGQGTQVTVSS”, the “polyreactivity (PSR sort gate)” value was “high polyreactivity”.
With “QVQLVESGGGLVQAGGSLRLSCAASGRIFGRYAMGWYRQAPGQERELVAGISARGGSTYYADSVKGRFTISRDNAKNTVYLQMNSLKPDDTAVYYCAAYAGFSDQAGYFYWGQGTQVTVSS” the “polyreactivity (PSR sort gate)” value was “high polyreactivity”.
In the case of “QVQLVESGGGLVQAGGSLRLSCAASGRIFGSNAMGWYRQAPGKERELVAAISWRGASTYYADSVKGRFTISRDNAKNTVYLQMNSLIPEDTAVYYCFLRGRATQWDFGYWGQGTQVTVSS”, the “polyreactivity (PSR sort gate)” value is reported as “high polyreactivity”.
With “QVQLVESGGGLVQAGGSLRLSCAASGRIFGSYAMGWYRQAPGKERELVASISGSGTSTYYADSVKGRFTISRDNAKNTVYLQMNSLKPEDTAVYYCARYVRYYPSKFYYWGQGTQVTVSS” the “polyreactivity (PSR sort gate)” value was “high polyreactivity”.
In the case of “QVQLVESGGGLVQAGGSLRLSCAASGRIFGSYVMGWYRQAPGKVRELVAAISRRGGSTYYADSVKGRFTISRDNAKNTVYLQMNSLKPEDTAVYYCAAEFSPSSNPYDYWGQGTQVTVSS”, the “polyreactivity (PSR sort gate)” value is reported as “high polyreactivity”.
In the case of “QVQLVESGGGLVQAGGSLRLSCAASGRIFGTNAMGWYRQAPGKERELVAAISRGGNTYYADSVKGRFTISRDNAKNTVYLQMNSLKPEDTAVYYCAARPGSGRSYTSDYWGQGTQVTVSS”, the “polyreactivity (PSR sort gate)” value is reported as “high polyreactivity”.
For “QVQLVESGGGLVQAGGSLRLSCAASGRIFGTNAMGWYRQAPGKERELVAAISRSGGSTYYADSVKGRFTISRDNAKNTVYLQMNSLKPEDTAVYYCATDGRHTYYYWGQGTQVTVST”, the “polyreactivity (PSR sort gate)” value was “high polyreactivity”.
For “QVQLVESGGGLVQAGGSLRLSCAASGRIFGTNAMGWYRQAPRKERELVADITSGGSTNYADSVKGRFTISRDNAKNTVYLQMNSLKPEDTAVYYCAADVIGDLRWYRDEYWGQVTQVTVSS”, the “polyreactivity (PSR sort gate)” value was “low polyreactivity”.
With “QVQLVESGGGLVQAGGSLRLSCAASGRIFGTYAMGWYRQAPGKERELVAAITSSGSTNYADSVKGRFTISRDTAKKTVYLQMNSLKPEDTAVYYCAAVWVVFYYCYTVPVHYEYWGQGTQVTVSS” the “polyreactivity (PSR sort gate)” value was “low polyreactivity”.
For “QVQLVESGGGLVQAGGSLRLSCAASGRIFGTYTMGWYRQAPGKERELVAAITTGGITNYADSVKGRFTISRDNAKNTVYLQMNSLKPEDTAVYYCNARWDYGAYEYWGQGTQVTVSS”, the “polyreactivity (PSR sort gate)” value was “low polyreactivity”.
For “QVQLVESGGGLVQAGGSLRLSCAASGRIFGVNAMGWYRQAPGKEREFVAVISSVGSTYYADSVKGRFTISRDNAKNTVYLQMKSLKPEDTAVYYCNAVVGRWFPYYLSDYWGQGTQVTVSS”, the “polyreactivity (PSR sort gate)” value was “low polyreactivity”.
With “QVQLVESGGGLVQAGGSLRLSCAASGRIFGVNAMGWYRQAPGKERELVAGISISGGSTHYADSVKGRFTISRDNAKNTVYLQMNSLKPEDTAVYYCAKRFYKYVSYWHDYWGQGTQVTVSS” the “polyreactivity (PSR sort gate)” value was “low polyreactivity”.
For “QVQLVESGGGLVQAGGSLRLSCAASGRIFGVNAMGWYRQAPGKERELVAHIRSSGASTYYADSVKGRFTISRDNAKNTVYLQMNSLKPEDTAVYYCARDYFVDGPGYDYWGQGTQVTVSS”, the “polyreactivity (PSR sort gate)” value was “low polyreactivity”.
For “QVQLVESGGGLVQAGGSLRLSCAASGRIFGVNAMGWYRQAPGNERELVAHIRSSGASTYYADSVKGRFTISRDNAKNTVYLQMNSLKPEDTAVYYCARDYFVDGPGYDYWGQGTQVTVSS”, the “polyreactivity (PSR sort gate)” value was “low polyreactivity”.
In the case of “QVQLVESGGGLVQAGGSLRLSCAASGRIFGVNAMGWYTQAPGKERELVAAIRYTGGSTYYADSVKGRFTISRDNAKNTVYLQMNSLKPEDTAVYYCAKARYTYSWSFGYWGQGTQVTVSS”, the “polyreactivity (PSR sort gate)” value is reported as “low polyreactivity”.
For “QVQLVESGGGLVQAGGSLRLSCAASGRIFGVYAMGWYRQAPGKDREFVASITRGGGRTYYADSVKGRFTISRDNAKNTVYLQMNSLKPEDTAVYYCNAVVNSYPYYYWGQGTQVTVSS”, the “polyreactivity (PSR sort gate)” value was “high polyreactivity”.
With “QVQLVESGGGLVQAGGSLRLSCAASGRIFGVYAMGWYRQAPGKERELVAAISSGASTYYADSVKGRFTISRDNAKNTVYLQMNSLKPEDTAVYYCAKSVKGGTGYYYWGQGTQVTVSS” the “polyreactivity (PSR sort gate)” value was “low polyreactivity”.
With “QVQLVESGGGLVQAGGSLRLSCAASGRIFGVYAMGWYRQAPGKERELVATIRSSGTRTNYADSVKGRFTISRDNAKNTVYLQMNSLKPEDTAVYYCAAGGRPYKLDFTRSDYWGQGTQVTVSS” the “polyreactivity (PSR sort gate)” value was “low polyreactivity”.
For “QVQLVESGGGLVQAGGSLRLSCAASGRIFGWYAKGWYRQAPGKETELVAAISPGGSTKYADSVKGRFTISRDYAKNTVYLQMNSLKPEDTADYYFAADLFNYTTGRDYWGQGTQVTVSS”, the “polyreactivity (PSR sort gate)” value was “low polyreactivity”.
In the case of “QVQLVESGGGLVQAGGSLRLSCAASGRIFGWYAMGCYIQAPGKERELVAAISSNGGSTYYADSVKGRFTISRDNAKNTVYLQMNSLKPEDTAVYYCAAVRVFQYKYDRFNYWGQGTQVTVSS”, the “polyreactivity (PSR sort gate)” value is reported as “high polyreactivity”.
In the case of “QVQLVESGGGLVQAGGSLRLSCAASGRIFGWYAMGSYRQAPGKEREFVAAITRRGGRTYYADSVKGRFTISRDNEKNNVYLQMNSLKPEDTAVYYCAVKYVRIGGVGPIVIYNYWGQGTQVTVSS”, the “polyreactivity (PSR sort gate)” value is reported as “high polyreactivity”.
In the case of “QVQLVESGGGLVQAGGSLRLSCAASGRIFGWYAMGWYRQAPGKEREFVAAITVTGGSTYYADSVKGRFTISRDNAKNTVYLQMNSLKPEDTALYYCAADRWYTRTGFDYWGQVTQVTVSS”, the “polyreactivity (PSR sort gate)” value is reported as “low polyreactivity”.
